These results are taken from paper PMC7781312 (bioRxiv, 2021).

For the assay, the target named is prefusion-stabilized SARS-CoV S ectodomain trimer (SARS-CoV 2P S) (SARS-CoV Urbani (AAP13441), UniProt P59594, stabilised). The experiment in a line: BLI.

B1: B6 monoclonal antibody (recombinant IgG with human constant regions) (antibody, V domains shown)
VH: EVQLQQSGPVLVKPGASVRMSCKASGYTITDYYLNWVKQSHGKSLEWLGVLNPYSGGSLYSQTFKGKATLTVDRSSSTAYLELNSLTSEDSAVYYCARQLGRGNGLDYWGQGTSVTVSS
VL: NIMMTQSPSSLAVSAGEKVTMSCKSSQSVLHSSDQKNYLAWYQQKPGQSPKLLIYWASTRESGVPDRFTGSGSGTDFTLTISSVQAEDLAVYFCHQYLSSYTFGGGTKLEIK
For B1, the binding result is on record as “binds”.
